Tested on: Escherichia coli TOP10
Experiment: shrunken log2 fold change of peptide-encoding DNA abundance (4.5 h post-induction vs induction); higher = less antimicrobial activity (less host growth inhibition)
Conditions: time post-induction: 4.5 h; library: site-saturation at positions 5, 18, 19, 20
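Also: peptides expressed intracellularly from a pBAD plasmid library in pooled LB shake-flask culture, induced with 0.3% L-arabinose, DNA abundance read by NGS, three biological replicates, DESeq2 with apeglm shrinkage.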

| Sequence | shrunken log2 fold change |
| --- | --- |
| RRIRHRPPRLPRPRPRPSVVPRP | 0.118 |
| RRIRHRPPRLPRPRPRPSWYPRP | -0.152 |
| RRIRHRPPRLPRPRPRPSYPPRP | -0.868 |
| RRIRHRPPRLPRPRPRPSYVPRP | -1.15 |
| RRIRHRPPRLPRPRPRPTAKPRP | 0.0616 |
| RRIRHRPPRLPRPRPRPTCEPRP | 0.012 |
| RRIRHRPPRLPRPRPRPTCLPRP | -0.0796 |
| RRIRHRPPRLPRPRPRPTDNPRP | -0.177 |
| RRIRHRPPRLPRPRPRPTDPPRP | 0.138 |
| RRIRHRPPRLPRPRPRPTDWPRP | 0.223 |
| RRIRHRPPRLPRPRPRPTEFPRP | -0.153 |
| RRIRHRPPRLPRPRPRPTENPRP | -0.418 |
| RRIRHRPPRLPRPRPRPTFDPRP | 0.0575 |
| RRIRHRPPRLPRPRPRPTFIPRP | -0.114 |
| RRIRHRPPRLPRPRPRPTFNPRP | -0.612 |
| RRIRHRPPRLPRPRPRPTGLPRP | -0.515 |
| RRIRHRPPRLPRPRPRPTGTPRP | -0.0618 |
| RRIRHRPPRLPRPRPRPTIAPRP | 0.451 |
| RRIRHRPPRLPRPRPRPTKCPRP | -0.0314 |
| RRIRHRPPRLPRPRPRPTKVPRP | -0.0672 |
| RRIRHRPPRLPRPRPRPTMCPRP | -0.00396 |
| RRIRHRPPRLPRPRPRPTMRPRP | 0.402 |
| RRIRHRPPRLPRPRPRPTNDPRP | -0.311 |
| RRIRHRPPRLPRPRPRPTNPPRP | -0.363 |
| RRIRHRPPRLPRPRPRPTNVPRP | -0.558 |

| Sequence | shrunken log2 fold change |
| --- | --- |
| RRIRHRPPRLPRPRPRPTNYPRP | -0.2 |
| RRIRHRPPRLPRPRPRPTPKPRP | -0.0377 |
| RRIRHRPPRLPRPRPRPTQMPRP | 0.222 |
| RRIRHRPPRLPRPRPRPTVCPRP | 0.196 |
| RRIRHRPPRLPRPRPRPTYPPRP | 0.0921 |
| RRIRHRPPRLPRPRPRPVAGPRP | 0.26 |
| RRIRHRPPRLPRPRPRPVAQPRP | 0.0207 |
| RRIRHRPPRLPRPRPRPVCPPRP | -0.0334 |
| RRIRHRPPRLPRPRPRPVDEPRP | 0.184 |
| RRIRHRPPRLPRPRPRPVDRPRP | -0.0926 |
| RRIRHRPPRLPRPRPRPVEYPRP | -0.0122 |
| RRIRHRPPRLPRPRPRPVHRPRP | -0.143 |
| RRIRHRPPRLPRPRPRPVIVPRP | -0.204 |
| RRIRHRPPRLPRPRPRPVKAPRP | -0.0779 |
| RRIRHRPPRLPRPRPRPVKHPRP | 0.0596 |
| RRIRHRPPRLPRPRPRPVLVPRP | -0.0156 |
| RRIRHRPPRLPRPRPRPVMQPRP | -0.01 |
| RRIRHRPPRLPRPRPRPVNAPRP | -0.0381 |
| RRIRHRPPRLPRPRPRPVNGPRP | -0.0224 |
| RRIRHRPPRLPRPRPRPVNLPRP | -0.0241 |
| RRIRHRPPRLPRPRPRPVNWPRP | 0.18 |
| RRIRHRPPRLPRPRPRPVQTPRP | -0.011 |
| RRIRHRPPRLPRPRPRPVRAPRP | 0.571 |
| RRIRHRPPRLPRPRPRPVREPRP | 0.522 |
| RRIRHRPPRLPRPRPRPVRQPRP | 0.0261 |

| Sequence | shrunken log2 fold change |
| --- | --- |
| RRIRHRPPRLPRPRPRPVRVPRP | 0.0942 |
| RRIRHRPPRLPRPRPRPVSCPRP | 0.011 |
| RRIRHRPPRLPRPRPRPVSLPRP | -0.0931 |
| RRIRHRPPRLPRPRPRPVVAPRP | -0.233 |
| RRIRHRPPRLPRPRPRPVVQPRP | 0.13 |
| RRIRHRPPRLPRPRPRPVYAPRP | -0.375 |
| RRIRHRPPRLPRPRPRPVYNPRP | -0.303 |
| RRIRHRPPRLPRPRPRPVYVPRP | -0.158 |
| RRIRHRPPRLPRPRPRPVYYPRP | -1.02 |
| RRIRHRPPRLPRPRPRPWACPRP | -0.051 |
| RRIRHRPPRLPRPRPRPWDTPRP | -0.164 |
| RRIRHRPPRLPRPRPRPWFAPRP | -0.217 |
| RRIRHRPPRLPRPRPRPWGDPRP | 0.0821 |
| RRIRHRPPRLPRPRPRPWIRPRP | -0.0813 |
| RRIRHRPPRLPRPRPRPWLEPRP | -0.0848 |
| RRIRHRPPRLPRPRPRPWLFPRP | -0.0716 |
| RRIRHRPPRLPRPRPRPWLQPRP | 0.0358 |
| RRIRHRPPRLPRPRPRPWMHPRP | 0.0155 |
| RRIRHRPPRLPRPRPRPWNNPRP | -0.453 |
| RRIRHRPPRLPRPRPRPWPTPRP | 0.103 |
| RRIRHRPPRLPRPRPRPWRNPRP | 0.00611 |
| RRIRHRPPRLPRPRPRPWSCPRP | -0.0195 |
| RRIRHRPPRLPRPRPRPWTRPRP | -0.0761 |
| RRIRHRPPRLPRPRPRPWTWPRP | -0.00897 |
| RRIRHRPPRLPRPRPRPWVTPRP | 0.0283 |

— the supplement of paper PMC9112550, “Optimization of the antimicrobial peptide Bac7 by deep mutational scanning” (BMC Biology, 2022)
